Measurements taken from publication PMC7375048, “The impact of acute rosiglitazone on insulin pharmacokinetics at the blood‐brain barrier” (Endocrinology, Diabetes & Metabolism, 2020).
Counter-ions that a name gives are not always drawn.

Columns and labels:
murine BBB [1] = test: Blood-to-brain 125I-insulin transport, multiple-time regression analysis; type: in vivo, mouse
Protocol: (§1) This experimental set‐up was based on previous studies investigating the acute effect of rosiglitazone. ^35 , ^36
(§2) Mice were decapitated, and the brain was collected immediately, dissected into the hypothalamus, olfactory bulb and remaining whole brain and weighed. Blood was centrifuged at 5400g for 10 min and serum collected. Radioactivity in 50 µL of serum and entire brain samples were counted in a gamma counter (Wizard2; Perkin Elmer).
Exposure time is calculated by the formula:(1) Exposure time=∫0tCp(t)dt/Cp(t) where Cp(t) is the level of radioactivity (cpm) in serum at time (t). Exposure time corrects for the clearance of peptide from the blood. […] The slope of the linearity measures K i and is reported with its standard error term. […] For cardiac perfusion studies, formula 2 is employed, using the brain/perfusate ratios and the clock time is used in place of exposure time.

murine BBB [2] = test: Transcardiac brain perfusion of 125I-insulin, multiple-time regression analysis; conditions: mouse, in vivo
From the text: as §1
The perfusate was freshly prepared for each study day. Perfusate was collected throughout the study to determine the average cpm/µL of perfusate. After perfusion, the olfactory bulb was collected and the brain dissected into regions (frontal/parietal/occipital cortex, striatum, hypothalamus, hippocampus, thalamus, cerebellum, midbrain and pons/medulla) according to Glowinski and Iversen; ^38 each region was weighed separately. The amount of radioactivity was determined by a gamma counter (Wizard2, Perkin Elmer). Brain/perfusate ratios are calculated by dividing the cpm in a gram of brain by the cpm in a µL of perfusate to yield units of µL/g.
Exposure time is calculated by the formula:(1) Exposure time=∫0tCp(t)dt/Cp(t) where Cp(t) is the level of radioactivity (cpm) in serum at time (t). Exposure time corrects for the clearance of peptide from the blood. […] The slope of the linearity measures K i and is reported with its standard error term. The y‐intercept of the linearity measures V i, the initial volume of distribution in brain at t = 0. ^37 Blasberg, Fenstermacher and Patlak originally described V i as the volume of test substance that rapidly and reversibly exchanges with the plasma (Blasberg 1983). For cardiac perfusion studies, formula 2 is employed, using the brain/perfusate ratios and the clock time is used in place of exposure time.

[3] = mouse, in vivo, iv
Protocol: as §2

[4] = system: brain capillary sequestration; type: in vivo, mouse
Protocol: Two and a half minutes later, blood was collected from the carotid, the mice decapitated and the whole brain removed. […] Homogenates were then centrifuged at 3500 g for 20 minutes at 4°C with a swinging bucket rotor (Beckman Coulter). The brain capillary fraction contained in the pellet and the supernatant containing the brain parenchyma were carefully separated. […] Fractions were expressed as percentages of total brain.

P‐glycoprotein = conditions: cited from earlier work
From the text: (§3) However, we were interested in the direct effect that would be mediated at the luminal surface of the brain endothelial cell, rather than an effect within the CNS. Indeed, PPARγ activation is known to have a direct effect on cerebral vascular expression of proteins, including various adhesion molecules and metalloproteinases. ^61 Therefore, we know brain en ...

murine BBB [5] = conditions: mouse, in vivo, iv; cited from earlier work
From the text: as §3

| effect on 125I-insulin vascular binding (V i), whole brain (murine BBB [1]; 1 µg S961 (P = .0006), 10 µg RSG pretreatment with S961 (P = .044), two-way ANOVA, Sidak) | effect on 125I-insulin vascular binding (V i), hypothalamus (murine BBB [1]; 1 µg S961 (P = .002), 10 µg RSG pretreatment with S961 (P = .025), two-way ANOVA, Sidak) | Compound | BBB transport rate K i, hypothalamus (murine BBB [1]; mouse, in vivo) [µL/g‐min] | average rate of transport K i, hypothalamus (murine BBB [1]; mouse, in vivo) [µL/g‐min] | average rate of transport K i, olfactory bulb (murine BBB [1]; mouse, in vivo) [µL/g‐min] | vascular binding V i, hypothalamus (murine BBB [1]; mouse, in vivo) [µL/g] | vascular binding V i, olfactory bulb (murine BBB [1]; mouse, in vivo) [µL/g] | BBB transport rate K i, whole brain (murine BBB [1]; mouse, in vivo, iv) [µL/g‐min] | BBB transport rate K i following cardiac perfusion, hypothalamus (murine BBB [2]) [µL/g‐min] | BBB transport rate K i following cardiac perfusion, olfactory bulb (murine BBB [2]) [µL/g‐min] | change of hypothalamic BBB transport rate in the absence of serum (murine BBB [2]) | vascular binding V i following cardiac perfusion, hypothalamus (murine BBB [2]) [µL/g] | vascular binding V i following cardiac perfusion, olfactory bulb (murine BBB [2]) [µL/g] | average half‐time clearance from blood [3] [min] | fraction of radioactivity in brain parenchyma vs capillary fraction ([4]; mouse, in vivo, iv) | P‐glycoprotein interaction (P‐glycoprotein) | penetration of the murine BBB (murine BBB [5]) | time of brain uptake (murine BBB [5]) [min] | effect on rate of 125I-insulin BBB transport (murine BBB [1]; whole brain, olfactory bulb, hypothalamus, 10 µg RSG pretreatment, 1 µg S961 co-injected) | effect on capillary/parenchyma distribution of 125I-insulin ([4]; 10 µg RSG pretreatment, data not shown) |
| --- | --- | --- | --- | --- | --- | --- | --- | --- | --- | --- | --- | --- | --- | --- | --- | --- | --- | --- | --- | --- |
| – | – | 125I‐insulin: human insulin (Sigma‐Aldrich) radioactively labelled with 125I by the chloramine‐T method | 1.39 ± 0.28 | 1.75 | 2.25 | 11.6 ± 2.0 | 10.4 ± 4.8 | 1.26 ± 0.17 | 6.11 ± 1.92 | 3.34 ± 1.31 | nearly tripled | -4.5 ± 5.7 | 13.5 ± 4.4 | 1.54 | majority | – | – | – | – | – |
| prevented this decrease in binding | prevented this decrease in binding | CN(CCOc1ccc(CC2SC(=O)NC2=O)cc1)c1ccccn1 (centres unmarked) [RSG, rosiglitazone maleate] | – | – | – | – | – | – | – | – | – | – | – | – | – | substrate of p‐glycoprotein | 0.045 % of an iv injected dose | ≤ 1 | did not significantly alter | no overt differences |
